From paper PMC5101663 come the findings set out here.

This test deals with Acinetobacter phage AP205 SpyTag-VLP (one SpyTag per VLP subunit) (Acinetobacter phage AP205). Description: covalent conjugation shown by reduced SDS-PAGE with densitometry; antigen and Spy-VLP mixed at 1.5:1 molar ratio (antigen per VLP subunit), overnight at 4 °C in PBS, 0.2% Polysorbate 80, pH 7.2; covalent SpyTag/SpyCatcher bond.

Consider “HIS-CSP-SpyCatcher antigen (from UniProt Q7K740 25-383)”, for which the stoichiometry N (CSP antigens per VLP) is 112.
